What all share (format): biochemical
Data set [1] can be described thus: Titration assay with triglycerides. As to conditions: 10 mM, 37° C., pH 7.0. Here is the method:
(§1) Enzyme activities on the substrates triacetin, tripropionin, tributyrin, tricaprylene, trilaurin and vinyl-substrates (vinyl-acetate, ˜propionate, ˜butyrate, ˜caproate, ˜caprylate and ˜laurate) were determined using a standard titration assay with minor modifications. Tests were performed with a Methrom 718 STAT potentiometric titrator (Herisau, Switzerland) and by using 10 mM NaOH for titration. The substrates at 10 mM concentration were emulsified in 20 ml reaction buffer containing 2 mM Tris/HCl pH 7.0. After addition of 7.5 μg of the purified enzyme the NaOH consumption was recorded at a reaction temperature of 37° C. One unit was defined as the amount of enzyme that released […] of fatty acid per min.

Data set [2] in a line: Enzyme activity with pNP-acylesters of different chain length. The following applies: substrate pNP-caproate (C6); 4 mM, 45° C., pH 7.2. Here is the method: Enzyme activity tests were performed by incubating the enzyme with 4 mM substrate at 45° C. in 100 mM Tris-HCl buffer at pH 7.2, unless otherwise indicated. The reaction was measured at 410 nm. One unit is defined as the amount of enzyme catalyzing the appearance of 1 μmol of free p-nitrophenol/min. Enzyme activity against pNP-acylesters (butyrate, valerate, caproate, octanoate, decanoate and palmitate) was tested under the above conditions. […] The enzyme according to SEQ ID NO: 6 converted pNP-caproate with a specific activity of 80.0 U/mg.

The nature of data set [3]: Titration assay with vinyl acid esters. The following applies: 10 mM, 37° C., pH 7.0. Here is the method:
as §1

Data set [4] in a line: Enantioselectivity, GC analysis of hydrolysis of acetic acid esters. The method, then: To assay the activity of the enzymes on a range of acetic acid esters gas chromatography was used. The samples were analyzed for the production of chiral alcohols by the gas chromatograph GC-17A (Shimadzu, Duisburg, Germany) equipped with FID detector and CP-Chirasil-DEX CB (Chrompack (Middelburg, Netherlands), 25 m×0.25 mm ID) at a helium flow of 1.3 ml/min. The temperature programme included: 5 min at 60° C., followed by an increase of 5° C. per min until 190° C. was reached. For the GC analysis, activity-tests were run in 1 M Tris buffered solutions and using 10 mM substrates dissolved in DMSO as 0.1 M stock solutions. 2 μg of the enzyme were added and tests incubated over night before the corresponding alcohols could be extracted by treatment with acetic acid ethyl ester and analyzed by GC.

[5] abbreviates: substrate Acetic acid ester of tetrahydronaphthylamin.
The mark [6] stands for this setting: substrate acetic acid ester of (+/−)-1-octin-3-ol, 10 mM, over night.
Where [7] appears, read: substrate acetic acid ester of phenylethylamin.
[8] abbreviates: substrate cis-3,5-diacetoxy-1-cyclopenten.
[9] abbreviates: substrate cis-3,5-diacetoxy-1-cyclopenten, conversion for the preferred enantiomer.
[10] abbreviates: substrate isopropylidenglycerolacetate (rac.), values marked ^1: substrate conversion after 12 h.

B1: EstCL1: recombinant enzyme having carboxyl esterase activity, amino acid sequence SEQ ID NO: 6, family IV of bacterial lipolytic enzymes (protein)
chain: MTDPYVRPDVAMFLAFLNNAPGPKLHELSAPEARMVQNAMRDMADAPVGELAVMRDLEIPGPAGTIMARLYDKQPGRGSGPAMVFFHGGGFVIGNIHTYEPFCAEVARLLDLPVISVEYRLGPESPFPAAFEDCEAAARWVASKPEALGFDVSGLILSGDSAGGNLTISTSMALRDVAAGVPVIAQMPIYPVVTLDPDWPSMRDFADGYLLTAELIQWFGDGHGASGEDYRTHPLDFDQSGMPPTVITTASLDPLRDQGMAYFEKLKAAGVRAEHISAEGNIHGHINVRKGIPSSQQDVEGYVTALTAMLAGVMAEA
modifications: metagenomic sequence
With B1, the specific activity in data set [1] (substrate triacetin (C2)) came out at 120 U/mg; in data set [1] (substrate tributyrin (C4)) it was 330 U/mg; in data set [1] (substrate tricaprylin (C8)), 0 U/mg; in data set [1] (substrate trilaurin (C12)), 0 U/mg; in data set [1] (substrate tripropionin (C3)) it was 200 U/mg; in data set [2], 80.0 U/mg. Moreover, the specific activity stood at 0 U/mg in data set [3] (substrate vinyl acetate (C2)); 550 U/mg in data set [3] (substrate vinyl butyrate (C4)); 80 U/mg in data set [3] (substrate vinyl caprylate (C8)); 0 U/mg in data set [3] (substrate vinyl laurinate (C12)); 173 U/mg in data set [3] (substrate vinyl propionate (C3)). The “conversion % of 1.e” value in data set [4] (setting [5]) is 0%; in data set [4] (setting [6]), 0%; in data set [4] (setting [7]), 0%; in data set [4] (setting [9]) it was 100%; in data set [4] (setting [10]), 0%; in data set [4] (substrate menthylacetate, 1. enantiomer (+)), 0%. In addition, the “conversion % of 2.e” value in data set [4] (setting [5]) worked out at 0%; in data set [4] (setting [6]), 0%; in data set [4] (setting [7]), 0%; in data set [4] (setting [8]), 0%; in data set [4] (setting [10]), 35%; in data set [4] (substrate menthylacetate, 2.e. (−)), 0%. Further, the ee % in data set [4] (setting [8]) and in data set [4] (substrate isopropylidenglycerolacetate (rac.)) was 100% in each case.

B2: EstCL2: recombinant enzyme having carboxyl esterase activity, amino acid sequence SEQ ID NO: 8, family V of bacterial lipolytic enzymes (protein)
chain: MKRKTIFSRLSFAALGLFAVATIALDAKAATTCPAGAICRYEEAPGSYSGNGPYTVRSYTLSRLQTPGGATVYYPSNARPPFSGVVFTPPYTGIQSMFAAWGPFFASHGIVMVTMDTNTTLDTVDQRASQQKQVLDALKRENTRSASALYGKLNTARLGAVGWSMGGGATWINSAEYAGLKSAMSLAGHNLTTVDIDSRGGNTRIPTLILNGALDLTYLGGLGQSDGVYNNIRSGVPKVFYEVSSAGHFAWGSPTSANRAVAGIALAFHKTFLDGDTRWVSYIKRPSSDVSKWATASLPQ
modifications: metagenomic sequence
B2: the “conversion % of 2.e” value in data set [4] (setting [8]) turned out to be 0%. Moreover, the “conversion % of 1.e” value in data set [4] (setting [9]) is 100%. Moreover, the ee % was 76.3% in data set [4] (substrate cis-3,5-diacetoxy-1-cyclopenten, listed as EstCl2) and 76% in data set [4] (substrate cis-3,5-diacetoxy-1-cyclopenten, listed as SEQ ID NO: 8).

The values above are taken from patent US8956838B2, “Carboxyl esterase polypeptides” (B.R.A.I.N., priority 2006, dated 2015).
